One substance from patent US20090297689A1 can be followed below.

For one experiment, the target named is sodium caseinate. The experiment can be described thus: cell-based or functional assay.
A further experiment concerns the target casein hydrolysate. Description: cell-based or functional assay.

On to “peptidyl arginine deiminase (PAD) of Fusarium graminearum CBS166.57, over-expressed in Aspergillus niger and purified (enzyme)”, for which, in the experiment with sodium caseinate, the arginine (amino acid analysis, 5 microliter PAD, 3 hours) was found to be 97.8%; the arginine (amino acid analysis, 50 microliter PAD, 3 hours) came out at 86.5%; the arginine (amino acid analysis, 500 microliter PAD, 3 hours) is 70.2%; the citrulline (amino acid analysis, 5 microliter PAD, 3 hours) turned out to be 0.8%. In the experiment with sodium caseinate, this substance returned a citrulline (amino acid analysis, 50 microliter PAD, 3 hours) of 4.7%; a citrulline (amino acid analysis, 500 microliter PAD, 3 hours) of 10.5%; an ornithine (amino acid analysis, 5 microliter PAD, 3 hours) of 1.3%; an ornithine (amino acid analysis, 50 microliter PAD, 3 hours) of 8.8%. Moreover, in the experiment with sodium caseinate, the ornithine (amino acid analysis, 500 microliter PAD, 3 hours) was 19.3%. In the experiment with casein hydrolysate, this substance had an arginine (amino acid analysis, 5 microliter PAD, 3 hours) of 97.2%; an arginine (amino acid analysis, 50 microliter PAD, 3 hours) of 86.1%; an arginine (amino acid analysis, 500 microliter PAD, 3 hours) of 60.4%; a citrulline (amino acid analysis, 5 microliter PAD, 3 hours) of 0.9%. In the experiment with casein hydrolysate, this substance returned a citrulline (amino acid analysis, 50 microliter PAD, 3 hours) of 5%; a citrulline (amino acid analysis, 500 microliter PAD, 3 hours) of 15.1%; an ornithine (amino acid analysis, 5 microliter PAD, 3 hours) of 1.9%; an ornithine (amino acid analysis, 50 microliter PAD, 3 hours) of 8.9%. Besides, the ornithine (amino acid analysis, 500 microliter PAD, 3 hours) with casein hydrolysate turned out to be 24.5%.
